The results in this text go back to a protein production outcome set (Wang et al. 2014).

This data set in a line: label from the status in PepcDB records.
With “MVSRLVLGCGTVGHAVIGSLADRRGELFVFDGDESRVDSLRNESVAAEVRDVTDPAAITLPDRSVDMVVVAGERADRNRLAAIAADAAHPDAGLVVYLGFDATPKDRHRIDSVADRVVDPGAELLSHANSLTESGASQRLQALRQTLQGIDGRLGVFMHDNPDPDAIAAAVGLQRIAEDAGVDSQACYFGEISHQENRAFVNLLEFDLRNVETQSDAEFDAVALVDHSGPGVNDQLAPDTDVDIVIDHHPPTTDVDAGFTDIRPDTGATSTILVEYLRGYGIDVRTAVATALLYGIRVDTDDFAREITPRDFTAAAWLLPNADTDVLERIEAPSLSADTFDTIAAGIRNRQLNGSVLASCVGQITARDTLAQTADRLLAMRGVAVTFVYGYFDGTIYVSARSRRKDLDLGAVLRSAFDDLGSAGGHADMAGAQLPLGLFDAVGEDAATTLTEMIEEVVASRFFEEVHGGTSGIQQGE”, the protein production result is reported as “failed”.
In the case of “MSRLSAAVVAIDGPAGTGKSSVSRRLARELGARFLDTGAMYRIVTLAVLRAGADPSDIAAVETIASTVQMSLGYDPDGDSCYLAGEDVSVEIRGDAVTRAVSAVSSVPAVRTRLVELQRTMAEGPGSIVVEGRDIGTVVFPDAPVKIFLTASAETRARRRNAQNVAAGLADDYDGVLADVRRRDHLDSTRAVSPLQAAGDAVIVDTSDMTEAEVVAHLLELVTRRSEAVR” it was “not failed”.
For “MRAFPFFRPVLAQLMKHRVAQESTRRWLDRIIQIIKYAYCQKLRRHFCQATLWKMIQLIVNGQSQLVPSPDSGTDSGTTNDARLNIRQLLEHMGLQGKRIAVERNGEIVPRSQFDQPMLASGDKLEIVVAVGGGLEHHHHHH” the value was “failed”; for “MSLADTRKIDSVLLIDDDDIVNFLNTTIIRMTHRVEEIQSVTSGNAAINKLNELYAAGRWPSIICIDINMPGINGWELIDLFKQHFQPMKNKSIVCLLSSSLDPRDQAKAEASDWVDYYVSKPLTANALNNLYNKVLNEGHHHHHH”, “not failed”; for “MALRKEDLILIPLVAGVMMGAIDSTIVVLALPTISDDLKAPLSLSIWIILAYLLVAAVSTTQFGRLGDMISRKTIFNSGMAIFTLGSFLCGVSSNIDFLIAFRFVQAAGGSMMQANSGSIIADNFPPNLRGRAYGYTSVGWNSGATLGIVLGGIITTLIGWRYIFYINVPVGIISLYFAIKYIIPGSKKNVKLDVPGVVTLTAALSSIAYAATDFTSHGLETTNETLLSIGFLLLVVFIFLERTNKNALLPFHLFQNRVFNFSIAASFLQSLGYLAVTFIVIMYLQGLRGLTPLDSSLLLVPGYVLGGFTGPIFGKLSDRIGARTPATLGMFLMMIAVLLYMTFNLKTPVYYVIPVSIISGLGSSMFFPANNSAVMASSPAGSYGAASGLLRTMANIGMLGSFVLAITVSTIAIPRYVAFEVFAGVGRLVGGLSASFLTGIHTALEVSFAIIAVGMLFSFVRGKENRSTSTPPRATETTK”, “failed”.
In the case of “MTIWLLQLVLVIALCNLCGRLAERLGQCAVVGEIAAGLLLGPSLFGVIAPSFYDLLFGPRTLSAMAQVGEVGLILLMFQIGLHMELSETLRGKRWRIPVAIAAGGLIAPAAIGMIVAIVSKDTLASDVPALPYILFCGVALAVSAVPVMARIIDDLALGAMVGARHAMSAAMLTDALGWMLLATIASLSSGPGWAFAHMLVSLLVYLVLCALLVRFVVRPVLARLASTAHATRDRLAVLLCFVIASALATSLIGFHSAFGALAAALFVRRVPGVAKEWRDNVEGFVKLVLMPVFFACAGLHASVGTIDDAASWMWCGVFLVGGFIGKFGGSYLGARGTGLAPHDAMLASSLMNTRGLMELIVLSIGLQMQILPPKVYTILVVFALVTTALTAPLVRFTLRMQTRAMSQQAA” it was “failed”.
In the case of “MSVKTWRKIAIDIIRDFDHNIMPLFGNPKASETISISPSGDETKVVDKVAENIIISKFKDLGVNVVSEEIGRIDQGSDYTVVVDPLDGSYNFINGIPFFAVSVAIFHEKDPIYAFIYEPIVERLYEGIPGKGSYLNGEKIKVRELAEKPSISFYTKGKGTKIIDKVKRTRTLGAIALELAYLARGALDAVVDIRNYLRPTDIAAGVVIAREAGAIVKDLDGKDVEITFSATEKVNIIAANNEELLETILRSIEK”, the protein production result was “not failed”.
As to “MSCTGFWRKLASGEECGAAARLLGAVLAIPAALYGLVVRLRALAYARGLSTVRHLDRPVISVGNLTVGGTGKTPMVAYLARRLMARGKRVAVISRGYGGSLEGETRIVSDGRTIVLSAAEAGDEPVHLATSVPGLMTVIGTDRYTAGLLALEQLDPDVFILDDGYQHLRLHRDLNILLMDCNRPLGNGRTLPAGLLREPQTAVRRADLVVYTRCTGGKAPAVHGMIPSCRAGHALTGAALLPDGEVQPLAALRGLRGVACAGIAEPEGFFDALRREGLDIVAAIPFADHASYGEREVSTLREAAAGADYLITTGKDGVKLSAHLARLLPVYATVLEMRPLDPAPLEAALDKVL”, the protein production entry is “failed”.
As for “ALQDRTQFSDRDLATLKKYWDNGMTSLGSVCREKIEAVATELNVDCEIVRTWIGNRRRKYRLMGIEV”, the protein production entry is reported as “not failed”.
In the case of “MSSPYILVLYYSRHGATAEMARQIARGVEQGGFEARVRTVPAVSTECEAVAPDIPAEGALYATLEDLKNCAGLALGSPTRFGNMASPLKYFLDGTSSLWLTGSLVGKPAAVFTSTASLHGGQETTQLSMLLPLLHHGMLVLGIPYSEPALLETRGGGTPYGASHFAGADGKRSLDEHELTLCRALGKRLAETAGKLGS” it was “not failed”; in that of “MRFFYFSGEIMEKILVIRNDKLGDFMQAWPAFAMLKASNPKLKLTALVPSYTASLAEICPFIDHVIIDSKKNDKTDFKRLVQEIKAQQFDGMISFFSNTHNGKLAWKSGIKYRLAPATKWVQILYNHRLTQRRSRSEKSEAEYNQDLVRTFLQKHNMPVVEPKPPYLIFEKSAVENQRVFLQENLGLSANKKWIFVHSGSGGSATNLSLAQYADLIKGLLAEFDCNVVLTAGPGESEKAYELANLVNDLRVAIYDKNKGLVDFAHSLACADLFIAGSTGPLHLSSAFNIPTIGFYPNSRSSQPRRWKPINDVDKHIAFCPPAGKESQMNLELISIDNALAEISLFIRNMWQTSNNI”, “failed”; in that of “MDLELDEYYNKTLATENNTAATRNSDFPVWDDYKSSVDDLQYFLIGLYTFVSLLGFMGNLLILMALMKKRNQKTTVNFLIGNLAFSDILVVLFCSPFTLTSVLLDQWMFGKVMCHIMPFLQCVSVLVSTLILISIAIVRYHMIKHPISNNLTANHGYFLIATVWTLGFAICSPLPVFHSLVELQETFGSALLSSRYLCVESWPSDSYRIAFTISLLLVQYILPLVCLTVSHTSVCRSISCGLSNKENRLEENEMINLTLHPSKKSGPQVKLSGSHKWSYSFIKKHRRRYSKKTACVLPAPERPSQENHSRILPENFGSVRSQLSSSSKFIPGVPTCFEIKPEENSDVHELRVKRSVTRIKKRSRSVFYRLTILILVFAVSWMPLHLFHVVTDFNDNLISNRHFKLVYCICHLLGMMSCCLNPILYGFLNNGIKADLVSLIHCLHM”, “failed”.
For “KKYVDNLKETISRVEVSRDNFLTILNSLSEPIFILDREGKITFLNEIARELVQGRINPEGRPYYEIFEDYYINEMVEETIKSEEPQEGTLVTYVGNEKKYFHVKVIPVELKSGDKIFVILFHDVTKERKLDEMRREFIATVSHEL” the value was “failed”; for “MTQRTAFTLTVSPKIPARLSRLEELSNNLWYSWDRATRALFSRLDQQLWEAVGHSPKAFLRRVDESLLLQAAEDLTFLSHYNSVLSAYDSYHSEPSRYQAINGIEARDQVAYFCFEFGFHESLPVYSGGLGILAGDHCKAASDLCLPFVAVGLLYRQGYFFQTIDGQGNQQPVFCDSDFEDLPVKPALHDDGSEVRISVRFPGRVVTVKVWRAQIGHVGLYLLDTDLPDNSEYDRLITHQLYGGNKTMRIEQEIILGVGGVAALRAMGIKPTIWHSNEGHAAFMMLTRALELVRQGLDFASATEAVAVNTIFTTHTAVPAGHDHFPEDMMHRYFEDFYHELKISREEFMALGHTPGNHDFNMTALAIRMSRMHNGVSRIHRDVSANICHDMWPQIEPEENPIDYVTNGVHVPTFLAQEWTDLFDRRLGSQWRSKQHAPEFWSRIHDIPDHIFWSVRQSLKSQMFYGIRARLTEQNLRNHGSEAHLERLLRFVDPINPNILTLGFARRFATYKRATLLFQDLDWLRKLLLDAARPILLIFAGKAHPADLPGQALIRHIHQVADMPEFRGRILLVEGYDLRLARRLVSGVDVWLNNPIYPLEASGTSGMKAGINGTLNLSILDGWWGEGYDGKNGWGIKPVSENMEDSLRDAEESRAFYEILQDQVIPLYYDHSKFGYSADWVRMAKNSMVSLLPRYGTGRMVGEYVQKFYAPASRQGTGYSQDNFAIARSIAAWKARINAAWDGVSVRRLDTPGKQLEFGSTMHFKLAVKLNGLQPEDVVVELLLSRQYNKTRLSQFKHFRLECTGPLGSHEHQFELNHVPELCGRQQYYLRIYPYHPLLTHPLEMGKMVWLLEHHHHHH”, “failed”.
In the case of “MSLEDHAEELASDLGVDKEEVTRDLENLVNYSVPMDEAKQSLRRKYGDGSSGGDSTPSSKAINEVSTEDSNVTVTAVVLTSGRRSIQYNGEQHVIREGELADETGKISYTAWDGFSGDLQPGQTVQLGNAGVREWDGQPELNLGDSTDPEVVDETLDIDYDVGGRAALQDLAPGDRGITVEVQVLECEQKVIDGRDGETTILSGVLGDESGRLPFTDWDPHDEIEEGASVRLDETFVREFRGAPSVNVSEFSAVTALDRTVGVTEDAPRLSVREAVESGGLFDVELAGNVIEVRDGSGLIERCPECGRVIQNGQCRSHGAVEGEDDLRTKAILDDGTDTVTAVLDDELTARVYGGDLDDAREHARDAMDKEVVAERISDRIVGREYVVRGSLSVDEYGANLTASTFAEADDDPATRAQALLQEADTLEHHHHHH” it was “not failed”; in that of “MRVAVAGFGGVGRRLARLLLERGGSHGLSLAAAIDSRGHAVFDSRGCVEEALSAPRGGLAGVSCGAPGSGPGVLRGLGYDALVLTTASSPGTGEPGLGYARAALEDGKVVVAADKPPVALLLLEHGGPPPGLFYKATVMAGTPLIDLLRVGLAGRRVLRVVGVLNGTSNYILNLLMEGV”, “failed”.
Take “MYVLIGGAGLVGLTLAQKLVELGHTVAIIDVDHTACRYAREQVGAMAFEGSAVSTEVLLEAGIRKADALAAVLRNDALNLAMVMLAKHYGVSHILSRMRHADFAQPLRLAGANHVISTVELSVSTMVNAIEYPQVESMMHFEQGQIEVLKISIPNSCYVANRSLAEIAQDSRFPSGSLIIGYQPHPHEDLVIPNGSTVLESGSTILIATKPGSLHQVIDFIEGCKLEHHHHHH”: the protein production entry is “not failed”.
For “MESAATAVVPPAAAATTATATDDNLQSSDSSSPADAVNRLIHAFSQRQQHLLDKTVPHVLYRWIACLCVVLIYIVRVYFVEGFYIITYAIGIYLLNLIIAFLSPQEDPEASLTSGGSLPTRRSDEYRPFVRRLPEFKFWLSIIRAFIIGFMMTFFEVFDVPVFWPILLFYWVMLFFLTMRKQIQHMIKYRYVPFSFGKKVCVSFSFLPSQN” the value was “failed”; for “MSQFPLISVMTFLPLLGVVLLFFVPKQSHSVHRMLALLVSLVTFVVSIPLVTGFQSNADFQFVEKMPWIAAGPFQMNYHVAIDGISLWLVLLTTFIMPIAILSTWTAVEEKVKEYMICLLLLEVGMLGAFVSLDLFLFYIFWEVMLIPMYFIIGIWGGKNKIYAAVKFFIYTMVGSMLMLVALVTLYFKAGAGDFNVLRFYEVTLDPATQVWMFLAFALAFAIKVPMFPLHTWLPDAHTEAPTAGSVILAAVLLKMGTYGFVRFAMPLFPDATDKFTPLIATLSVIGIIYAALVAMVQEDVKKLVAYSSVAHLGYVMLGVFALNLQGLSGGMLQMLNHGVSTGALFLIVGFIYERRHTRLITDFGGLAKQMPVFATIFMIVTLSSIGLPGTNGFVGEFLVLLGAFESELRWYAVIGTSGVILAAVYMLWMFQRVMFGELTNPKNQTLCDLNAREVGIMLPLLVLIFVMGVYPTPFIEKMSPSLEKLIVHVKTKQQGAVAQVETVPAAPQVMPAAAVVPAEHK”, “failed”.
